Changes are numbered by the printed parent chain. In names and notes the source's numbering stands.
B1: cMyc-tagged RyR2 N-terminus (NT, residues 1-906), wild type (domain or fragment, UniProt Q92736 1-906, looked up)
chain: MADGGEGEDEIQFLRTDDEVVLQCTATIHKEQQKLCLAAEGFGNRLCFLESTSNSKNVPPDLSICTFVLEQSLSVRALQEMLANTVEKSEGQVDVEKWKFMMKTAQGGGHRTLLYGHAILLRHSYSGMYLCCLSTSRSSTDKLAFDVGLQEDTTGEACWWTIHPASKQRSEGEKVRVGDDLILVSVSSERYLHLSYGNGSLHVDAAFQQTLWSVAPISSGSEAAQGYLIGGDVLRLLHGHMDECLTVPSGEHGEEQRRTVHYEGGAVSVHARSLWRLETLRVAWSGSHIRWGQPFRLRHVTTGKYLSLMEDKNLLLMDKEKADVKSTAFTFRSSKEKLDVGVRKEVDGMGTSEIKYGDSVCYIQHVDTGLWLTYQSVDVKSVRMGSIQRKAIMHHEGHMDDGISLSRSQHEESRTARVIRSTVFLFNRFIRGLDALSKKAKASTVDLPIESVSLSLQDLIGYFHPPDEHLEHEDKQNRLRALKNRQNLFQEEGMINLVLECIDRLHVYSSAAHFADVAGREAGESWKSILNSLYELLAALIRGNRKNCAQFSGSLDWLISRLERLEASSGILEVLHCVLVESPEALNIIKEGHIKSIISLLDKHGRNHKVLDVLCSLCVCHGVAVRSNQHLICDNLLPGRDLLLQTRLVNHVSSMRPNIFLGVSEGSAQYKKWYYELMVDHTEPFVTAEATHLRVGWASTEGYSPYPGGGEEWGGNGVGDDLFSYGFDGLHLWSGCIARTVSSPNQHLLRTDDVISCCLDLSAPSISFRINGQPVQGMFENFNIDGLFFPVVSFSAGIKVRFLLGGRHGEFKFLPPPGYAPCYEAVLPKEKLKVEHSREYKQERTYTRDLLGPTVSLTQAAFTPIPVDTSQIVLPPHLERIREKLAENIHELWVMNKIELGWQYGP
B2: cMyc-tagged RyR2 N-terminus (NT, residues 1-906) with R420Q (domain or fragment, UniProt Q92736 1-906, looked up)
chain: B1 chain with R420Q

Target: the molecule itself
Assay: cross-linking

Row | Protein | stoichiometry N
1 | B1 | 4
2 | B2 | 4

Source: paper PMC8320243 (Circulation research, 2021)
